Measured values taken from PMC4569319 (Molecular Biology of the Cell, 2015).

Biological target: Murine ΔIBB-importin α1 (mouse, UniProt P52293 70-529)
Assay: crystal structure

B1: Pom121NLS(291-320), GST cleaved off (peptide)
chain: LKEKKKRTVAEEDQLHLDGQENKRRRHDSS
- binding result: binds
